Results as given in the supplement of paper PMC10724198.
± gives the standard deviation of the averaged measurements.

What was measured:
Saccharomyces cerevisiae [1] = experiment: protein stability index of tFT-peptide fusion (C-terminal peptide) (PSI (0-1 scale)); higher = more stable (slower turnover); settings: genetic background: wild type; temperature: 30 C
Saccharomyces cerevisiae [2] = experiment: as above
Protocol: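 MPS profiling in S. cerevisiae of the tFT-X12 degron library: putative degron peptides plus stable controls, 12 aa, fused to the C-terminus of a sfGFP-mCherry timer. Cells are FACS-sorted into 8 mCherry/sfGFP bins and deep-sequenced. PSI runs from 0 (unstable) to 1 (stable). Backgrounds are wild type, das1Δ and doa10Δ at 30 °C, and wild type, das1Δ, cdc34-1 and cdc53-1 at 37 °C; 2-3 technical replicates each.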

[3] = genetic background: cdc34-1, temperature: 37 C
[4] = genetic background: cdc53-1, temperature: 37 C
[5] = genetic background: das1 deletion, temperature: 30 C
[6] = genetic background: das1 deletion, temperature: 37 C
[7] = genetic background: doa10 deletion, temperature: 30 C
[8] = genetic background: wild type, temperature: 30 C
[9] = genetic background: wild type, temperature: 37 C
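Note: PSI is a weighted mean of sequencing reads over stability bins, variants kept only with over 10 reads, mCherry proximal and sfGFP distal, peptide attached via GGGS linker.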

Sequence	protein stability index (Saccharomyces cerevisiae [1])	protein stability index (Saccharomyces cerevisiae [2]; [3])	protein stability index (Saccharomyces cerevisiae [2]; [4])	protein stability index (Saccharomyces cerevisiae [2]; [5])	protein stability index (Saccharomyces cerevisiae [2]; [6])	protein stability index (Saccharomyces cerevisiae [2]; [7])	protein stability index (Saccharomyces cerevisiae [2]; [8])	protein stability index (Saccharomyces cerevisiae [2]; [9])
SRSYNSPSLYVC	0.147 ± 0.009	0.498 ± 0.061	0.6496 ± 0.0057	0.605 ± 0.029	0.712 ± 0.0089	0.0903 ± 0.0041	0.102 ± 0.016	0.109 ± 0.0097
LQLGFCFVAQFI	0.509 ± 0.03	0.6346 ± 0.0062	0.675 ± 0.02	0.491 ± 0.035	0.6394 ± 0.0044	0.462 ± 0.03	0.476 ± 0.024	0.607 ± 0.02
CFVISVLFFFVG	0.444 ± 0.025	0.292 ± 0.011	0.491 ± 0.035	0.288 ± 0.035	0.467 ± 0.015	0.284 ± 0.024	0.286 ± 0.013	0.436 ± 0.03
AELLMLRIFFLF	0.132 ± 0.027	0.281 ± 0.0063	0.48 ± 0.036	0.333 ± 0.019	0.491 ± 0.022	0.091 ± 0.0049	0.0708 ± 0.019	0.0944 ± 0.032
KGSKGELGVHVG	0.671 ± 0.34	0.686 ± 0.03	0.712 ± 0.013	0.63 ± 0.016	0.728 ± 0.0034	0.628 ± 0.023	0.634 ± 0.021	0.6889 ± 0.0015
CYRRCQAFLVLV	0.181 ± 0.0026	0.313 ± 0.024	0.397 ± 0.015	0.334 ± 0.031	0.449 ± 0.015	0.134 ± 0.0022	0.127 ± 0.026	0.162 ± 0.011
SFCSFVFVTFVL	0.455 ± 0.033	0.4 ± 0.031	0.4842 ± 0.0023	0.321 ± 0.044	0.508 ± 0.022	0.317 ± 0.016	0.312 ± 0.02	0.52 ± 0.058
PSSVKLRVPSLY	0.7075 ± 0.0025	0.672 ± 0.029	0.762 ± 0.033	0.623 ± 0.021	0.7309 ± 0.00087	0.61091 ± 0.00013	0.636 ± 0.015	0.715 ± 0.033
MALAVRVVLCGA	0.236 ± 0.034	0.0507 ± 0.0085	0.0673 ± 0.038	0.165 ± 0.026	0.192 ± 0.0025	0.116 ± 0.029	0.153 ± 0.0088	0.168 ± 0.0051
NLVCLDPFLVFV	0.581 ± 0.22	0.582 ± 0.027	0.612 ± 0.011	0.478 ± 0.018	0.613 ± 0.0077	0.475 ± 0.026	0.472 ± 0.025	0.5835 ± 0.003
GIVSGEGAVGVG	0.509 ± 0.025	0.46 ± 0.041	0.511 ± 0.025	0.468 ± 0.0097	0.5212 ± 0.0039	0.488 ± 0.022	0.466 ± 0.011	0.4989 ± 0.0019
LFLIYCFAFSIG	0.367 ± 0.049	0.258 ± 0.083	0.328 ± 0.032	0.22 ± 0.034	0.4171 ± 0.00091	0.194 ± 0.02	0.239 ± 0.021	0.366 ± 0.014
VFAWSLYLRWAW	0.489 ± 0.015	0.2813 ± 0.0012	0.287 ± 0.0065	0.362 ± 0.025	0.411 ± 0.011	0.481 ± 0.02	0.357 ± 0.017	0.384 ± 0.0076
HRARILLIRICP	0.415 ± 0.017	0.486 ± 0.024	0.517 ± 0.011	0.411 ± 0.024	0.64 ± 0.019	0.5034 ± 0.0046	0.42 ± 0.032	0.585 ± 0.029
YYQVSQKIQRKQ	0.435 ± 0.065	0.681 ± 0.012	0.708 ± 0.021	0.639 ± 0.023	0.726 ± 0.042	0.323 ± 0.0077	0.371 ± 0.018	0.584 ± 0.014
VICSLFRYIMRL	0.199 ± 0.0043	0.414 ± 0.021	0.518 ± 0.0071	0.571 ± 0.013	0.6336 ± 0.0037	0.18 ± 0.019	0.132 ± 0.0062	0.134 ± 0.043
FFVKGFRLLVFQ	0.47 ± 0.015	0.454 ± 0.039	0.481 ± 0.013	0.421 ± 0.04	0.573 ± 0.014	0.461 ± 0.019	0.384 ± 0.014	0.516 ± 0.046
IFCRCNSTVLLI	0.451 ± 0.024	0.547 ± 0.035	0.633 ± 0.013	0.483 ± 0.021	0.5959 ± 0.0016	0.365 ± 0.055	0.37 ± 0.018	0.522 ± 0.021
VVFVRLGWMRAC	0.172 ± 0.046	0.441 ± 0.034	0.52 ± 0.017	0.43 ± 0.03	0.59 ± 0.018	0.0904 ± 0.01	0.0972 ± 0.021	0.112 ± 0.0058
ILFWSLLVSTIR	0.177 ± 0.082	0.13 ± 0.031	0.223 ± 0.056	0.174 ± 0.034	0.263 ± 0.0027	0.137 ± 0.017	0.149 ± 0.035	0.266 ± 0.004

Sequence	protein stability index (Saccharomyces cerevisiae [1])	protein stability index (Saccharomyces cerevisiae [2]; [3])	protein stability index (Saccharomyces cerevisiae [2]; [4])	protein stability index (Saccharomyces cerevisiae [2]; [5])	protein stability index (Saccharomyces cerevisiae [2]; [6])	protein stability index (Saccharomyces cerevisiae [2]; [7])	protein stability index (Saccharomyces cerevisiae [2]; [8])	protein stability index (Saccharomyces cerevisiae [2]; [9])
SVLCLFSRLRSV	0.354 ± 0.069	0.625 ± 0.022	0.7308 ± 0.0022	0.638 ± 0.015	0.736 ± 0.0017	0.17 ± 0.0041	0.19 ± 0.032	0.383 ± 0.011
FLLPWLRPVFFF	0.293 ± 0.011	0.522 ± 0.056	0.607 ± 0.055	0.567 ± 0.013	0.69 ± 0.0074	0.219 ± 0.0046	0.218 ± 0.024	0.369 ± 0.029
FITFLVFVGFFL	0.355 ± 0.034	0.393 ± 0.06	0.421 ± 0.0078	0.313 ± 0.022	0.495 ± 0.026	0.263 ± 0.0094	0.295 ± 0.026	0.448 ± 0.0071
LVDPFAALRHVV	0.246 ± 0.0088	0.624 ± 0.026	0.768 ± 0.0078	0.709 ± 0.016	0.71 ± 0.013	0.15 ± 0.014	0.173 ± 0.024	0.3825 ± 0.0015
FKYRVPLVGVVK	0.347 ± 0.0072	0.30503 ± 3.5e-05	0.317 ± 0.033	0.245 ± 0.029	0.43316 ± 0.00012	0.203 ± 0.018	0.25 ± 0.02	0.3897 ± 0.00038
MRLQLTFSILLF	0.389 ± 0.019	0.353 ± 0.036	0.43 ± 0.034	0.378 ± 0.021	0.393 ± 0.0059	0.4027 ± 0.0029	0.37 ± 0.021	0.3598 ± 0.0024
HFASPPAPRSNL	0.765 ± 0.0023	0.799 ± 0.051	0.819 ± 0.023	0.762 ± 0.03	0.81 ± 0.016	0.785 ± 0.032	0.785 ± 0.032	0.792 ± 0.014
DGYLFKGIWFFV	0.189 ± 0.031	0.645 ± 0.011	0.7326 ± 0.0039	0.617 ± 0.033	0.738 ± 0.036	0.145 ± 0.0041	0.163 ± 0.022	0.349 ± 0.0098
APTMAIIVVHVR	0.3059 ± 0.0021	0.237 ± 0.022	0.291 ± 0.013	0.22 ± 0.034	0.3582 ± 0.0027	0.1859 ± 0.0016	0.207 ± 0.036	0.359 ± 0.019
VIVQSWEIIRLN	0.21 ± 0.018	0.553 ± 0.055	0.71 ± 0.0093	0.604 ± 0.022	0.7176 ± 0.0053	0.0878 ± 0.0043	0.105 ± 0.026	0.122 ± 0.0068
LIEMVTTRYRLC	0.242 ± 0.044	0.59 ± 0.02	0.7192 ± 0.0016	0.622 ± 0.016	0.717 ± 0.034	0.132 ± 0.0065	0.128 ± 0.02	0.189 ± 0.018
VVLWVVCWGCWK	0.328 ± 0.027	0.237 ± 0.05	0.339 ± 0.021	0.215 ± 0.038	0.432 ± 0.024	0.179 ± 0.015	0.205 ± 0.029	0.421 ± 0.021
SFLCILIFPFFP	0.469 ± 0.034	0.497 ± 0.051	0.6 ± 0.015	0.411 ± 0.02	0.6 ± 0.015	0.391 ± 0.011	0.408 ± 0.028	0.5623 ± 0.0044
LPSLPPPPPPPP	0.498 ± 0.039	0.675 ± 0.071	0.717 ± 0.018	0.673 ± 0.044	0.732 ± 0.024	0.654 ± 0.025	0.647 ± 0.016	0.687 ± 0.0092
KIILMCYTLITL	0.264 ± 0.015	0.255 ± 0.033	0.347 ± 0.041	0.228 ± 0.039	0.43 ± 0.018	0.2009 ± 0.0016	0.225 ± 0.017	0.413 ± 0.04
VAGGFWCWGMVG	0.4642 ± 0.0023	0.718 ± 0.034	0.782 ± 0.015	0.663 ± 0.0093	0.788 ± 0.013	0.392 ± 0.016	0.436 ± 0.024	0.677 ± 0.024
VSLIYKTIKNRV	0.517 ± 0.057	0.6704 ± 0.0033	0.732 ± 0.0082	0.595 ± 0.03	0.726 ± 0.063	0.396 ± 0.049	0.397 ± 0.015	0.6009 ± 0.001
RRGGNIVWYCLV	0.234 ± 0.017	0.588 ± 0.025	0.694 ± 0.015	0.634 ± 0.0066	0.714 ± 0.011	0.125 ± 0.0088	0.148 ± 0.017	0.24 ± 0.0074
CLCYFLFYFLFV	0.501 ± 0.043	0.49 ± 0.0055	0.513 ± 0.026	0.436 ± 0.033	0.572 ± 0.0063	0.465 ± 0.023	0.442 ± 0.029	0.543 ± 0.028
